In patent US20040086528A1 (PROGENICS PHARMACEUTICALS, published 2004):

Experiments:
Assay in all cases: cell-based or functional assay
[1] = target: T1, CCR5 K22A, HA-tagged (human, UniProt P51681 1-352)
T1 sequence: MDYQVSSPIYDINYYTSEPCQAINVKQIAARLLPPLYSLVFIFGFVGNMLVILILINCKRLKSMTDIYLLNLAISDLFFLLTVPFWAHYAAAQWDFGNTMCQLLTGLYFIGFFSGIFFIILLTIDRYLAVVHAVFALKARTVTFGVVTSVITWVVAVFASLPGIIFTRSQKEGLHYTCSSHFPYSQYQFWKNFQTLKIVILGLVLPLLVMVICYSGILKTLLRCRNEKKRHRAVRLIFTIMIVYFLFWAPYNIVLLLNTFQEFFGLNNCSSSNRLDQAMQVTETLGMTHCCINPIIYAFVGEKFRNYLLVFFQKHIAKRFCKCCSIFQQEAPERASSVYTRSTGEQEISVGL

[2] = target: T2, CCR5 D2A, HA-tagged (human, UniProt P51681 1-352)
T2 sequence (looked up): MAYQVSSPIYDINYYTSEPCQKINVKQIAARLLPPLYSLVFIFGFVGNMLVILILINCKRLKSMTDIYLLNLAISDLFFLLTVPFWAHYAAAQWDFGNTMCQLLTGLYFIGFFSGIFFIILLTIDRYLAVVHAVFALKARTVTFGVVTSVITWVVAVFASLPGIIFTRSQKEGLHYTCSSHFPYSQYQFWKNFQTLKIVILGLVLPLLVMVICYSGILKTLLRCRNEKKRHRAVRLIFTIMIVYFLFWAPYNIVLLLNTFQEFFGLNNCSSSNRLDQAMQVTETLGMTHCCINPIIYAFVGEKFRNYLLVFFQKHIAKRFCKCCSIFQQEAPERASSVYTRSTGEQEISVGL

[3] = target: T3, CCR5 K191A/N192A, HA-tagged (human, UniProt P51681 1-352)
T3 sequence: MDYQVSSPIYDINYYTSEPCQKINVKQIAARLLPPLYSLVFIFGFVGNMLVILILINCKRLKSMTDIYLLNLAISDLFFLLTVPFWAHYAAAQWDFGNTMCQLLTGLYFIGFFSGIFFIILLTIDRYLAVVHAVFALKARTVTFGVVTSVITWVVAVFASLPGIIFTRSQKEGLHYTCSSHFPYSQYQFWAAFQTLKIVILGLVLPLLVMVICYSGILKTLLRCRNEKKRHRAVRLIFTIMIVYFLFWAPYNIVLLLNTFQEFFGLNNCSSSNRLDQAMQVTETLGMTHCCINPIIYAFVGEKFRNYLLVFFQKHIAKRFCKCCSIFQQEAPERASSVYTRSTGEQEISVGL

[4] = target: T4, CCR5 N13A, HA-tagged (human, UniProt P51681 1-352)
T4 sequence: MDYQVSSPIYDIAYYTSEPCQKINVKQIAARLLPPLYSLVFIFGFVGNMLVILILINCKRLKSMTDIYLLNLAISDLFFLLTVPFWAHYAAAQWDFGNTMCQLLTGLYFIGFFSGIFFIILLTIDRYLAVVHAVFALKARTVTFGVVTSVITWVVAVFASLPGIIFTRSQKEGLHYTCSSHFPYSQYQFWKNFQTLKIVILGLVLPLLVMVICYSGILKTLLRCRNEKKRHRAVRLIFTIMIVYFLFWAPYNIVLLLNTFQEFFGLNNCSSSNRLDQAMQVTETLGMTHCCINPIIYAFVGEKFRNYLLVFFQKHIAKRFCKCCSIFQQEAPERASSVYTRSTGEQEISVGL

[5] = target: T5, CCR5 H175A, HA-tagged (human, UniProt P51681 1-352)
T5 sequence: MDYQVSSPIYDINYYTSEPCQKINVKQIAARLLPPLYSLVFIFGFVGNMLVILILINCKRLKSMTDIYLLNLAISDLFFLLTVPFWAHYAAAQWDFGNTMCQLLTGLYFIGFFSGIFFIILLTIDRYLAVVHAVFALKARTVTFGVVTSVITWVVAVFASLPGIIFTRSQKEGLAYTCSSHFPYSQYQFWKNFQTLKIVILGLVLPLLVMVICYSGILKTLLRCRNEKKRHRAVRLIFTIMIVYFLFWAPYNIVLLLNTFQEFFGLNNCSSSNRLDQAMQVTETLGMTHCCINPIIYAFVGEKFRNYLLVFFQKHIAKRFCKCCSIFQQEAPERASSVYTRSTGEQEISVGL

[6] = target: T6, CCR5 Q102A, HA-tagged (human, UniProt P51681 1-352)
T6 sequence: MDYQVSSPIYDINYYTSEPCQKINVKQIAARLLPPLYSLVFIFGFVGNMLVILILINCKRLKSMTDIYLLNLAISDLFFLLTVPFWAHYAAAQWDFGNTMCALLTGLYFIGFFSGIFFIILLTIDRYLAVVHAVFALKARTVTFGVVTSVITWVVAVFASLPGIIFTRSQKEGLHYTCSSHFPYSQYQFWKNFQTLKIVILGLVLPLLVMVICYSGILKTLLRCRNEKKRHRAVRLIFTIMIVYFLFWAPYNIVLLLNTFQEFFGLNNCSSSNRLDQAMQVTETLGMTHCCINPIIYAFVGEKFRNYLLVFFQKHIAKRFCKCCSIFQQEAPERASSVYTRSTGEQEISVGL

[7] = target: T7, CCR5 D95A, HA-tagged (human, UniProt P51681 1-352)
T7 sequence: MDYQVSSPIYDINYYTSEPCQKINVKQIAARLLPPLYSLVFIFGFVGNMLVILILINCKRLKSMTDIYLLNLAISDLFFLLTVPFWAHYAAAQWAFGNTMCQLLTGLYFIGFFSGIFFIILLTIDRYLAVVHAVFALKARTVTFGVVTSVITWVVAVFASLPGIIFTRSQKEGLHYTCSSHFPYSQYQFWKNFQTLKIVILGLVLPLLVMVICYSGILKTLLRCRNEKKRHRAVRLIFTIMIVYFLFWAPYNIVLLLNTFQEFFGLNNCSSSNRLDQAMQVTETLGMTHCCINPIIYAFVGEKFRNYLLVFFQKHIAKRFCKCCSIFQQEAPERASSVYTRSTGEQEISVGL

Binder	relative % inhibition of NLluc/JR-FL entry into U87MG-CD4 cells by 2 µg/ml chemokine (wild-type = 100) [1]	relative % inhibition of NLluc/JR-FL entry into U87MG-CD4 cells by 2 µg/ml chemokine (wild-type = 100) [2]	relative % inhibition of NLluc/JR-FL entry into U87MG-CD4 cells by 2 µg/ml chemokine (wild-type = 100) [3]	relative % inhibition of NLluc/JR-FL entry into U87MG-CD4 cells by 2 µg/ml chemokine (wild-type = 100) [4]	relative % inhibition of NLluc/JR-FL entry into U87MG-CD4 cells by 2 µg/ml chemokine (wild-type = 100) [5]	relative % inhibition of NLluc/JR-FL entry into U87MG-CD4 cells by 2 µg/ml chemokine (wild-type = 100) [6]	relative % inhibition of NLluc/JR-FL entry into U87MG-CD4 cells by 2 µg/ml chemokine (wild-type = 100) [7]
RANTES, recombinant human (ligand) SPYSSDTTPCCFAYIARPLPRAHIKEYFYTSGKCSNPAVVFVTRKNRQVCANPEKKWVREYINSLEMS	-11%	85%	18%	92%	95%	93%	121%
macrophage inflammatory protein (MIP)-1β, recombinant human (ligand, UniProt P13236 24-92, looked up) APMGSDPPTACCFSYTARKLPRNFVVDYYETSSLCSQPAVVFQTKRSKQVCADPSESWVQEYVYDLELN	12%	97%	15%	93%	100%	98%	112%
